# According to the DeepSol protein solubility set:
# Experiment: soluble on expression in E. coli; label from the status in PepcDB or PDB records
row,Sequence,soluble on expression in E. coli
1,SLGSQSSKAPRGDVTAEEAAGASPAKANGQENGHVKSNGDLSPKGEGESPPVNGTDEAAGATGDAIEPAPPSQGAEAKGEVPPKETPKKKKKFSFKKPFKMSGMSFKRNRKEGGGDSSASSPTEEEQEQGEIGACSDEGTAQEGKAAATPESQEPQAKGAEASAASEEEAGPQATEPSTPSGPESGPTPASAEQNE,soluble
2,MNIREPPDVVIFCELIYGAAITCLKKFFLRDVFKIFITSHKANIDLMDVVIKSFTDSTNSGKLSKAWAHAQNCHTNFYELKNMKKKLKQNILKSVSEMNNIIKKADIDMINNNLKPFLKQMEKLPTKKTVTIGNESFEYNKTASWYN,not soluble
3,MDLRSALEKTNIIKSYKLHFLIRYTTSRFEVKEPFLAYLHMARQKDKLLPKCITPPNKKADPFTNDVSSYFTHTHTHTPCSPSLVYTYVNTTEKSPSKSPKHKNILPFNFTK,not soluble
4,MKTLVVALGGNALLQRGEALTAENQYRNIASAVPALARLARSYRLAIVHGNGPQVGLLALQNLAWKEVEPYPLDVLVAESQGMIGYMLAQSLSAQPQMPPVTTVLTRIEVSPDDPAFLQPEKFIGPVYQPEEQEALEAAYGWQMKRDGKYLRRVVASPQPRKILDSEAIELLLKEGHVVICSGGGGVPVTDDGAGSEAVIDKDLAAALLAEQINADGLVILTDADAVYENWGTPQQRAIRHATPDELAPFAKADGSMGPNVTAVSGYVRSRGKPAWIGALSRIEETLAGEAGTCISL,not soluble
5,MGSDKIHHHHHHMVKMNMSDIDISEPLSDLLAPLNNEQREFLMNNYTIQTYKKNETIYCEGETPSHLMCLITGKVKIFKDGVGGRSQIIRMIKQREYFAYRAYFAKEDFVTAAAAFEPSVICLIPMTAITTLVAQNNDLAMFFIRQLSIDLGISDERTVSLTQKHIRGRLAESLIFLKESYGLEEDGSTLSIYLSREDLANLSNMTTSNAIRTLSQFATERLITIDGRKIKIIEEEKLKKISKIG,not soluble
6,MGSDKIHHHHHHMSNKLPALHLFGIFEAAARHENFKQAAAELFITPSAVSHQIKALEAFLGFELFQRKSRGVALNAAGKVYLHYVQQGINKLEQGTKIVSNKFSSPSLKISTFTTMASNVIIPTLSDFQQQHPTIDIRIETGMNLTDLRYDDCDLAIRMGKGDWPGVVVKKLLNLTAHAVCSAEFAKKHKLTSPEQISQVPLIDLANMNNIWRTWAGAMQLPEMQYQHKLTFGNYDASLQAAEQGLGLALAIMPIEHALIERNLLVLPFEKSTNFDQSLYAVYREEDQNRNDIHCFLDWLTQSPNLKPI,not soluble
7,MHEYPITKRIIEISQEHANKHNAKEVKQINLVVGDYSGYVASSIELYFGIIAEGTVCENAKLNIKRVKPMLKCNECESLFVRKPFSFECPYCGGQGSPTEIGHEFYIESIEI,soluble
8,MKKWFLLLIASLVGYIAYEDLTVGTLPASSKTPVVRENIGIPAYKVIKIKAGDTLLSIAEREQQGPLPVSIETLIRDFEKLNPEAKADALQIGKTYKIPVYEK,not soluble
9,FEKVYHLKLSIKGITPQIWRRIQVPENYTFLDLHKAIQAVMDWEDYHLHEFEMVNPKTGMLDKIGAEGDDFDAFGGPLVSEKKAKLSDYFTLENKEALYTYDFGDNWQVKVRLEKILPRKEGVEYPICTAGKRAAVPEDSGGVWGYEEMLEVLKDSEHEEYEDTVLWLGDDFDPEYFDPKDVS,not soluble
10,MGSDKIHHHHHHMFGYVKINKMDLTFREYDYYKAYYCGLCKYLKRNHGEISRFSLNYDITFLIVLLTAVYNPESISTEEVCIVNPFKKKKVITNDITEYAASMNILLTYYKLEDNLMDDKRIKDKLAYYIYKNKLKLAYEKYPEKAEYIKQQLNELNKLEKDKNINIDEVSSIFGNIMGEVFVYKKDENERNLRMIGFNIGKYIYLLDAYEDLDEDFKKGRYNPFIEYIDKNDELKEKVKKIIVTSLGFLARGIDNLNLNKNVGIIENIIYSGVYLRYINILESRGGKNVQ,not soluble
11,GPGSMSLLNTTLQTLVVRLRDMSGNVTQQKLHNRVFDAYEAKSLVFEAISPEQQAVMQQFGTIPSQHPAGQPVLLDGWADLLTVHREDNLYQLLPRRAKNNASYSTMRAICCSAGSPFTMDHRVDPIDYKFVFRAADMEVRNKFNATNQDKIPPTIWFDGILSAPNDSGLVSCHNSLSPAHINNLAGTYQFLKEWSNEPPEGDRHRQLKEMYSNLLSKRTHLFIGSSSVPGREILNYARSKNVFVYAKRGMHYVFHA,not soluble
12,MEIDDCIRDNIPWANLSPDIKVILGNSSKEYEKRVLEYSIQNQLRYKGNLIRHMKKSEEAYYEQLLRFSESHLMLYPYHLSDITVTEMRLSPFSYYANILTEMLNTEKSYDSLPNFTAADAVRLLGIGRNQYIELMNQTRSNRKFLRRSKSARELLPQKPTKMIVESWWRTNVGSILESDVKTLNEEEKQVIDRLLDTNVAIPAGLLKYSVVTSLYDRGLIYFDVPVYDNDYIYVAPLDGFVMNRVLGDYFETLLYKIFVAIDDQTTVLEMSQILHIDLQLVKNAISVFCRLGFARKRVTGGENLTIHTSWTSNSTVTTPMSPISPMSSLITSTSDELNELTKTLLRGDDDETDDALSPVSEDSALRASSPNPSLNNSVESFQSLSTSQTASDLSGSSGTVNRAAFIFDSTLTAFLMMGNLSASLKGHAVALFEVGKLADEQMKEFLEQLESVNQFAEGDAQRYSMHATALLDSLKSLRQEREADLIRGESLYTLDEKSRQRVLQKSYGILVAMAPLSIEACAIPVQSVPLIGPPNAETCSPWFRLSIYSACSSGPPSVFLPHGTRLTTLPRVLQSFQHHRFLVSSTKHEPHIMTAQNALFALNDMLVYSSIFVQSVPLDSEDCDKMIHVPFPFEDLECETAFCNHPAIRKLREQLSLDFTAGYVILLKKSGKSITTSGSDISGRTKAESNIMQDVSLPKDGGLLKKLLPGTSFDDFLLLDCVFGVPLFNSVLNETICKRILGRGILEQQNRSNIQNSNKQVVGMINELIDTANNGLIKGSQLFVEGTDQQRNAQIVPPVRAIFFDSSQLISYGTI,not soluble
13,MGSDKIHHHHHHGKPLRKVDLLADIRPDVEEEVCDSDTIVLPPPVKPIFVDTCKTGITCIEDYSDSTMRGMKHFYEALSKVKTMKRPVRIAYFGDSFIEADIFTADLREMLQQEFGGCGVGYVPVTSSISGYRPTVRHTFGGWSSHSSNDSVGFDKMQQDISGHYFFPREGAYVQLKGQSKYASRLDTCEVSTFYFLNKGFAAVRSKVNNAAEGELHEEVGTGGVQAVSVRGRIGQVRWSVEQADSVTFYGVAMDGRQGISLDNFSVRGSSGLHLRSIPLHTLCDFQRLRPYDLIVVQYGLNVATERGVKYDGYKKGMLSVIEHLKTAFPETSILLVSVGDREYKNENGDLRTMPGVKNLIRYQQSIAADSHIAFWNMYEAMGGQGSIVDMIGQKMANLDYTHINFKGGKHLAGILFETLMYGKEQYERRKAYEEE,not soluble
14,MPDSSMKRGATLCLALAIGPGSTLADDSLGHRDNISTGLNQRQKAEMKVPPGFVEGSTLNGFIRNYYFARDNHDTPSRRDQREWAQGLMLSFRSGYTDTPIGIGLDAHAFYGLRLDGGGGSGGAGVLPLDSAGRPADSFSAAGAALKLRGLDSLLKIGDQLLENPVIASGVSRMVPQSYRGVTLKNYHFRALELDAGFVEATRLRNQSGHSHLTSGYGNGTKGGIAADRESPHIAWLGASYSAPGGSQATLYSGRLEDIWNQHYLGLSQPWRLSSQLTLTPWLHYYKTRDQGRSQLGRIDNDLYNAGLTLAGGGQSLSLSLQKVDGDTPFDFIAQNDRTFLYESNAMQYADFNGPGERSWKIQYQASLAFLAAPDWQFGAAYGRGQADLTRVDPDSAGYGYLYNPNGKNAQHWERDLSLRYAFPAGPAKGLSVTLRWATHRPGEGYTAPGNTRGNSSSDEYRVVVDYPIRLL,not soluble
15,MGHHHHHHSHMSLDINQIALHQLIKRDEQNLELVLRDSLLEPTTTVVEMVAELHRVYSAKNKAYGLFNEESELAQALRLQRQGEEDFLAFSRAATGRLRDELAKYPFADGGIVLFCHYRYLAVEYLLVTVLNNLSSMRVNENLDINPTHYLDINHADIVARIDLTEWETNPQSTRYLTFLKGRVGRKVADFFMDFLGASEGLNAKAQNRGLLQAVDDFTAEAQLDKAERQNVRQQVYSYCNEQLQAGEEIELESLSKELSGVSEVSFSEFTAEKGYELEESFPADRSTLRQLTKYAGSGGGLTINFDAMLLGERIFWDPATDTLTIKGTPPNLRDQLQRRTSGGK,soluble
16,MPERIATVGWSNHEVPLALGVTPVGFEKVTWGDDDNNGILPWVEETLSKLGSDEPVLFDATDSIPFEEIANTAPDVILASYSGITQEDYDQLSQIAPVVAYPEIAWGTSLDEMIEMNSKAIGLEQEGKDLIADLDAEVASAIDANPELEHHHHHH,not soluble
17,SNAMANIKIRQETPTAFYIKVHDTDNVAIIVNDNGLKAGTRFPDGLELIEHIPQGHKVALLDIPANGEIIRYGEVIGYAVRAIPRGSWIDESMVVLPEA,soluble
18,MEKYEEVLVSIRQIIRAIDLHSKKLSKESGLTAPQLILMRAINELDNVTIKQLSNHTNMSQATATTILDRLERNQLVERRRSVEDKRKVHAVLTEKGEEALRQAPTPLQEHFINRFQKLEEWEQTLLLSSVQRISTMMNAEDIDVAPLLEIGSITKPE,not soluble
19,MGHHHHHHGSRKGAELGILIKNADALEVAEKVTAVIFDKTGTLTKGKPEVTDLVPLNGDERELLRLAAIAERRSEHPIAEAIVKKALEHGIELGEPEKVEVIAGEGVVADGILVGNKRLMEDFGVAVSNEVELALEKLEREAKTAVIVARNGRVEGIIAVSDTLKESAKPAVQELKRMGIKVGMITGDNWRSAEAISRELNLDLVIAEVLPHQKSEEVKKLQAKEVVAFVGDGINDAPALAQADLGIAVGSGSDVAVESGDIVLIRDDLRDVVAAIQLSRKTMSKIK,soluble
20,MGSDKIHHHHHHMKADRLLEIVALLQNHEKLTTHQLVDHLHVSSRTILRDMDTLSALGIPIVSERGRAGGWKLMDHFRSQLSGMSMTELKALFILPSDKVLKDLGIPTKGRDIRLNMLSSLQGNRKHAVRPYLEKVYIDTGTWKPSKERMEEFNVVQQAVFEEKKLYIVYENAKGEQRERLISPLGLVAKGSAWYVVATVETGDIRNFKLSRIKDSKLVREPIVKPETFSLATYWNESKEQFVQTLPSYEATVLAHDSIIHRLTFTGKFVENIQVGHRDDEWVTVNLCFHDEQEITEYVLGFGGRMKLVTPKHLIGRIVQQASAVIQQYASDKEPTNETKEGL,not soluble
21,MGSDKIHHHHHHMSLPYKRWHYFNLIKNSLQKGCLKQQQTLTATTLKRNTIMTVIKQEDFIQSICDAFQFISYYHPKDYIDALYKAWQKEENPAAKDAMTQILVNSRMCAENNRPICQDTGIATVFLKVGMDVQWDADMSVEEMVNEGVRRAYTWEGNTLRASVLADPAGKRQNTKDNTPAVIHMSIVPGDKVEVTCAAKGGGSENKSKLAMLNPSDNIVDWVLKTIPTMGAGWCPPGILGIGIGGTPEKAVLMAKESLMSHIDIQELQEKAASGAELSTTEALRLELFEKVNALGIGAQGLGGLTTVLDVKILDYPTHAASKPIAMIPNCAATRHVEFELDGSGPVELTPPRVEDWPDLTYSPDNGKRVDVDKLTKEEVASWKTGDVLLLNGKILTGRDAAHKRLVDMLDKGEELPVDFTNRLIYYVGPVDPVGDEIVGPAGPTTATRMDKFTRQMLEQTDLLGMIGKSERGAATCEAIADNKAVYLMAVGGAAYLVAKAIKSSKVLAFPELGMEAIYEFEVKDMPVTVAVDSKGESIHATAPPQWQAKIGIIPVKS,not soluble
